From publication PMC1594584
Values joined by “and” are separate entries in the source; they are usually repeats but may differ in a detail not shown here. Identical values can stand only once.

What was measured:
[1] = biological target: Aβ42 F19,20T/I31P MRF (AβMRF carrying the triple mutation Phe19,20Thr and Ile31Pro in its Aβ42 portion) (not stated | S. cerevisiae) (UniProt P05453); assay: SDS electrophoresis of SDS-stable oligomers with immunoblot; yeast lysates treated with 1% SDS for 7 min at room temperature, resolved in 1.5% agarose or 7.5% polyacrylamide gels, blotted with anti-RF (BE4) or anti-Aβ (6E10); cells also grown with 6.3 mM guanidine or with HSP104 deleted; densitometry
[2] = biological target: AβMRF (met-Aβ42-HA-M-3xHA-RF; Aβ42 fused to the N terminus of Sup35p MRF) (not stated | S. cerevisiae) (UniProt P05453); assay: as above

stoichiometry N [1]	monomer's share of the pool (HSP104 WT cells) [2] [%]	monomer's share of the pool (hsp104Δ cells) [2] [%]	stoichiometry N [2]	Substance
2	–	–	–	Aβ42 F19,20T/I31P MRF (AβMRF carrying the triple mutation Phe19,20Thr and Ile31Pro in its Aβ42 portion) (from UniProt P05453 124-685)
–	34	47	2 and 3 and 4	AβMRF (met-Aβ42-HA-M-3xHA-RF; Aβ42 fused to the N terminus of Sup35p MRF) (from UniProt P05453 124-685)
